Measurements taken from PMC2850574 (Biochemistry, 2010).
Ends that are not written are not given here.

What was measured:
[1] = molecular target: LamB signal peptide signal peptide (Escherichia coli) (UniProt P02943); conditions: cited from earlier work
SecA-Cys-190 = test: Specificity control: scrambled SP22 binding/FRET; parameters: species or system Escherichia coli; conditions: 7 μM IAEDANS-labeled SecA-Cys-190, 18 μM IANBD-labeled scrambled SP22; data not shown
SecAΔ11-Cys-190 = SecAΔ11-Cys-190 (Escherichia coli, UniProt P10408, C885S/C887S/C896S/C98S/N190C); test: Binding of SP22 to monomeric SecAΔ11-Cys-190 by FRET titration
SecA-Cys-256 = SecA-Cys-256 (Escherichia coli, UniProt P10408, C885S/C887S/C896S/C98S/T256C); test: Signal peptide binding to SecA-Cys-256 by fluorescence anisotropy
[2] = molecular target: IAEDANS-labeled SecAΔ11-Cys-190 (E. coli) (UniProt P10408)
[3] = molecular target: IANBD-labeled alkaline phosphatase signal peptide SP22 (E. coli); test: fluorescence polarisation
[4] = molecular target: T1, wild-type SecA (Escherichia coli SecA ATPase) (E. coli, UniProt P10408 9-836); test: fluorescence polarisation
[5] = molecular target: T1, wild-type SecA (Escherichia coli SecA …); test: fluorescence polarisation; remark: listed apart in the source

SecA (from UniProt P10408)
Kd [1]: 100000 nM

PLMDTEITLKFLSPLQALKTVC-NH2 [scrambled SP22]
high-affinity binding and FRET (SecA-Cys-190): neither high-affinity binding nor FRET was detected

MKQSTIALALLPLLFTPVTKAC-NH2 [SP22]
Kd (SecAΔ11-Cys-190): 3060 ± 1130 nM
Kd (SecA-Cys-256): 1100 ± 200 nM

IAEDANS-labeled SecAΔ11-Cys-190 (from UniProt P10408 9-836) (natural protein)
Kd [2]: 230 nM

SecA-Cys-256 (unlabeled) (from UniProt P10408 9-836) (natural protein)
Kd [3]: 1100 nM

MKQSTIALALLPLLFTPVTKAC(IANBD)-NH2 [IANBD-labeled alkaline phosphatase signal peptide SP22]
stoichiometry N [4]: 1 mole ratio of signal peptide to SecA
Kd [5]: 1400 ± 200 nM
